Laboratory results as given in article PMC11574045, “A cofactor-induced repressive type of transcription factor condensation can be induced by synthetic peptides to suppress tumorigenesis” (The EMBO Journal, 2024).

B1: NEUROD4 (protein, UniProt Q9HD90 1-331, looked up)
Neurogenic differentiation …: MSKTFVKSKEMGELVNTPSWMDKGLGSQNEVKEEESRPGTYGMLSSLTEEHDSIEEEEEEEEDGEKPKRRGPKKKKMTKARLERFRARRVKANARERTRMHGLNDALDNLRRVMPCYSKTQKLSKIETLRLARNYIWALSEVLETGQTPEGKGFVEMLCKGLSQPTSNLVAGCLQLGPQSVLLEKHEDKSPICDSAISVHNFNYQSPGLPSPPYGHMETHLLHLKPQVFKSLGESSFGSHLPDCSTPPYEGPLTPPLSISGNFSLKQDGSPDLEKSYSFMPHYPSSSLSSGHVHSTPFQAGTPRYDVPIDMSYDSYPHHGIGTQLNTVFTE
B2: ATF1 (protein, UniProt P18846 1-271, looked up)
Cyclic AMP-dependent …: MEDSHKSTTSETAPQPGSAVQGAHISHIAQQVSSLSESEESQDSSDSIGSSQKAHGILARRPSYRKILKDLSSEDTRGRKGDGENSGVSAAVTSMSVPTPIYQTSSGQYIAIAPNGALQLASPGTDGVQGLQTLTMTNSGSTQQGTTILQYAQTSDGQQILVPSNQVVVQTASGDMQTYQIRTTPSATSLPQTVVMTSPVTLTSQTTKTDDPQLKREIRLMKNREAARECRRKKKEYVKCLENRVAVLENQNKTLIEELKTLKDLYSNKSV
B3: MYOG (protein, UniProt P15173 1-224, looked up)
Myogenin: MELYETSPYFYQEPRFYDGENYLPVHLQGFEPPGYERTELTLSPEAPGPLEDKGLGTPEHCPGQCLPWACKVCKRKSVSVDRRRAATLREKRRLKKVNEAFEALKRSTLLNPNQRLPKVEILRSAIQYIERLQALLSSLNQEERDLRYRGGGGPQPGVPSECSSHSASCSPEWGSALEFSANPGDHLLTADPTDAHNLHSLTSIVDSITVEDVSVAFPDETMPN
B4: MYSM1 (protein, UniProt Q5VVJ2 1-828, looked up)
Deubiquitinase MYSM1: MAAEEADVDIEGDVVAAAGAQPGSGENTASVLQKDHYLDSSWRTENGLIPWTLDNTISEENRAVIEKMLLEEEYYLSKKSQPEKVWLDQKEDDKKYMKSLQKTAKIMVHSPTKPASYSVKWTIEEKELFEQGLAKFGRRWTKISKLIGSRTVLQVKSYARQYFKNKVKCGLDKETPNQKTGHNLQVKNEDKGTKAWTPSCLRGRADPNLNAVKIEKLSDDEEVDITDEVDELSSQTPQKNSSSDLLLDFPNSKMHETNQGEFITSDSQEALFSKSSRGCLQNEKQDETLSSSEITLWTEKQSNGDKKSIELNDQKFNELIKNCNKHDGRGIIVDARQLPSPEPCEIQKNLNDNEMLFHSCQMVEESHEEEELKPPEQEIEIDRNIIQEEEKQAIPEFFEGRQAKTPERYLKIRNYILDQWEICKPKYLNKTSVRPGLKNCGDVNCIGRIHTYLELIGAINFGCEQAVYNRPQTVDKVRIRDRKDAVEAYQLAQRLQSMRTRRRRVRDPWGNWCDAKDLEGQTFEHLSAEELAKRREEEKGRPVKSLKVPRPTKSSFDPFQLIPCNFFSEEKQEPFQVKVASEALLIMDLHAHVSMAEVIGLLGGRYSEVDKVVEVCAAEPCNSLSTGLQCEMDPVSQTQASETLAVRGFSVIGWYHSHPAFDPNPSLRDIDTQAKYQSYFSRGGAKFIGMIVSPYNRNNPLPYSQITCLVISEEISPDGSYRLPYKFEVQQMLEEPQWGLVFEKTRWIIEKYRLSHSSVPMDKIFRRDSDLTCLQKLLECMRKTLSKVTNCFMAEEFLTEIENLFLSNYKSNQENGVTEENCTKELLM
B5: NEUROG2 (protein, UniProt Q9H2A3 1-272, looked up)
Neurogenin-2: MFVKSETLELKEEEDVLVLLGSASPALAALTPLSSSADEEEEEEPGASGGARRQRGAEAGQGARGGVAAGAEGCRPARLLGLVHDCKRRPSRARAVSRGAKTAETVQRIKKTRRLKANNRERNRMHNLNAALDALREVLPTFPEDAKLTKIETLRFAHNYIWALTETLRLADHCGGGGGGLPGALFSEAVLLSPGGASAALSSSGDSPSPASTWSCTNSPAPSSSVSSNSTSPYSCTLSPASPAGSDMDYWQPPPPDKHRYAPHLPIARDCI
B6: NEUROD (protein, UniProt Q13562 1-356, looked up)
Neurogenic differentiation …: MTKSYSESGLMGEPQPQGPPSWTDECLSSQDEEHEADKKEDDLETMNAEEDSLRNGGEEEDEDEDLEEEEEEEEEDDDQKPKRRGPKKKKMTKARLERFKLRRMKANARERNRMHGLNAALDNLRKVVPCYSKTQKLSKIETLRLAKNYIWALSEILRSGKSPDLVSFVQTLCKGLSQPTTNLVAGCLQLNPRTFLPEQNQDMPPHLPTASASFPVHPYSYQSPGLPSPPYGTMDSSHVFHVKPPPHAYSAALEPFFESPLTDCTSPSFDGPLSPPLSINGNFSFKHEPSAEFEKNYAFTMHYPAATLAGAQSHGSIFSGTAAPRCEIPIDNIMSFDSHSHHERVMSAQLNAIFHD
B7: NEUROG3 (protein, UniProt Q9Y4Z2 1-214, looked up)
Neurogenin-3: MTPQPSGAPTVQVTRETERSFPRASEDEVTCPTSAPPSPTRTRGNCAEAEEGGCRGAPRKLRARRGGRSRPKSELALSKQRRSRRKKANDRERNRMHNLNSALDALRGVLPTFPDDAKLTKIETLRFAHNYIWALTQTLRIADHSLYALEPPAPHCGELGSPGGSPGDWGSLYSPVSQAGSLSPAASLEERPGLLGATFSACLSPGSLAFSDFL
B8: MYNN (protein, UniProt Q9NPC7 1-610, looked up)
Myoneurin: MQYSHHCEHLLERLNKQREAGFLCDCTIVIGEFQFKAHRNVLASFSEYFGAIYRSTSENNVFLDQSQVKADGFQKLLEFIYTGTLNLDSWNVKEIHQAADYLKVEEVVTKCKIKMEDFAFIANPSSTEISSITGNIELNQQTCLLTLRDYNNREKSEVSTDLIQANPKQGALAKKSSQTKKKKKAFNSPKTGQNKTVQYPSDILENASVELFLDANKLPTPVVEQVAQINDNSELELTSVVENTFPAQDIVHTVTVKRKRGKSQPNCALKEHSMSNIASVKSPYEAENSGEELDQRYSKAKPMCNTCGKVFSEASSLRRHMRIHKGVKPYVCHLCGKAFTQCNQLKTHVRTHTGEKPYKCELCDKGFAQKCQLVFHSRMHHGEEKPYKCDVCNLQFATSSNLKIHARKHSGEKPYVCDRCGQRFAQASTLTYHVRRHTGEKPYVCDTCGKAFAVSSSLITHSRKHTGEKPYICGICGKSFISSGELNKHFRSHTGERPFICELCGNSYTDIKNLKKHKTKVHSGADKTLDSSAEDHTLSEQDSIQKSPLSETMDVKPSDMTLPLALPLGTEDHHMLLPVTDTQSPTSDTLLRSTVNGYSEPQLIFLQQLY
B9: NEUROD3 (protein, UniProt Q92886 1-237, looked up)
Neurogenin-1: MPARLETCISDLDCASSSGSDLSGFLTDEEDCARLQQAASASGPPAPARRGAPNISRASEVPGAQDDEQERRRRRGRTRVRSEALLHSLRRSRRVKANDRERNRMHNLNAALDALRSVLPSFPDDTKLTKIETLRFAYNYIWALAETLRLADQGLPGGGARERLLPPQCVPCLPGPPSPASDAESWGSGAAAASPLSDPSSPAASEDFTYRPGDPVFSFPSLPKDLLHTTPCFIPYH

The molecules below were run on HEK293FT cells transfected with TF library (assay: Screening of TF condensates based on fluorescent puncta). Details: Figure 1B numerical data; TF library screen, one value per transcriptional factor.
Type: cell-based
Method in brief: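 HEK293FT, PEI transfection of TF library, 60 h; ±glucose 12 h; 4% PFA fix, 0.05% Triton X-100 permeabilization, 5% BSA block; anti-Flag/anti-GAL4 overnight at 4 °C, Alexa 488 secondary 1 h; high-content imaging, 50 fields/well.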
With B1 the “Z score of condensed fraction” value was 0.614.
B2 was tested, and the “Z score of condensed fraction” value was -0.9514.
B3 was tested, and the “Z score of condensed fraction” value was 0.6311.
For B4, the “Z score of condensed fraction” value was -0.7244.
B5 was tested, and the “Z score of condensed fraction” value was -1.044.
For B6, the “Z score of condensed fraction” value was 0.06185.
In the case of B7, the “Z score of condensed fraction” value is reported as 1.376.
For B8, the “Z score of condensed fraction” value was -0.5885.
With B9 the “Z score of condensed fraction” value was -0.2856.
